Test results taken from US20250025549A1.

What was measured:
[1] = target: dipeptidyl peptidase IV (DPP4), the MERS-CoV receptor, His-tagged (human) (UniProt P27487)
[2] = target: dipeptidyl peptidase IV (DPP4), the MERS-CoV receptor, His-tagged (human) (UniProt P27487); experiment: ELISA, spike coated, His-tagged hDPP4 titrated

Chain of dipeptidyl peptidase IV (DPP4), the MERS-CoV receptor, His-tagged (human) (P27487 29-766 limits assumed): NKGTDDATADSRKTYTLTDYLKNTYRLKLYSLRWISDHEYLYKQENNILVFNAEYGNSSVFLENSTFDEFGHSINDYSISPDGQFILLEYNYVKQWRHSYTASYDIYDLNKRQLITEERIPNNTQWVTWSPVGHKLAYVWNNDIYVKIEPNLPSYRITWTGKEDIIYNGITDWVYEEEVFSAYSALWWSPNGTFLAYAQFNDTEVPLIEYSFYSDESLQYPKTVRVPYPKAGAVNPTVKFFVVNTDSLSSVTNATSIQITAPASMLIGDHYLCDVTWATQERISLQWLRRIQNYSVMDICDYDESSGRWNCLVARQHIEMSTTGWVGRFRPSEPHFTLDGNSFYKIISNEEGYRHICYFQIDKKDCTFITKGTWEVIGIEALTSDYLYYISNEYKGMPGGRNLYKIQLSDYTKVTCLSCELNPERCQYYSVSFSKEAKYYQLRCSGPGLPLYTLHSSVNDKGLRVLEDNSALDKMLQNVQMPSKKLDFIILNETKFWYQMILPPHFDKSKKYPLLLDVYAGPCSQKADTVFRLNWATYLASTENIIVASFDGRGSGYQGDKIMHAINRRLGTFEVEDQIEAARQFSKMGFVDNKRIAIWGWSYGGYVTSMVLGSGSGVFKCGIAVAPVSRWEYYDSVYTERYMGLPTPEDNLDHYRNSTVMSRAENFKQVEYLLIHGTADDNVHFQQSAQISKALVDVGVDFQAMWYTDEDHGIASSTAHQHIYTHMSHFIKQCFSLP

## BV2373 CoV S polypeptide (SEQ ID NO: 87) (from UniProt P0DTC2 14-1273) (other; other documents disagree on this pair)
[1]
  IC50: > 5 µg/mL
[2]
  EC50: > 5 µg/mL
